Data reported in publication PMC10304631 (Pharmaceutics, 2023).

What was measured:
[1] = predicted log P; ref Drugbank.com and pubchem.ncbi.nlm.nih.gov (accessed on 3 January 2023); cited from earlier work
Caco-2 cells [2] = assay: PEN-mediated uptake of TAMRA-insulin by confocal microscopy (CLSM); assay type: cell-based, human; conditions: undifferentiated Caco-2 cells; 5 µM TAMRA-insulin alone, pH 7.4, 1 h
Caco-2 cells [3] = assay: PEN-mediated uptake of TAMRA-insulin by flow cytometry; assay type: cell-based, human; conditions: 5 µM TAMRA-insulin alone or with 20 µM PEN, 1 h, 37 °C, mean ± SD, N = 2, n = 3
Method: The controls were incubated with a buffer without CPP or insulin. The cells were kept on a shaking table (37 °C, 50 rpm) for 1 h. Hereafter, the test solutions were removed, and the cells were washed twice with cold phosphate-buffered saline (4 °C) and trypsinized for 10–15 min. Trypsinization was terminated by the addition of excess cold hHBSS (4 °C) containing 10% (v/v) FBS (hHBSS/FBS). The cells were then collected and centrifuged at 4000 rpm (1076× g, 4 °C). The supernatant was removed, and the cells were washed once with hHBSS/FBS and centrifuged again at the same conditions before suspension in hHBSS/FBS containing 0.3% (v/v) DRAQ7 as a marker of the plasma membrane’s integrity. To quench extracellular plasma membrane-associated fluorescence, a parallel experiment was performed using the same test solutions, with the addition of trypan blue (TB) at a final concentration of 0.1% (v/v) just prior to analysis.

Compound: OC[C@@H](O)[C@@H](O)[C@H](O)[C@H](O)CO [Mannitol]
- Log P [1]: −3.7

Compound: TAMRA-Insulin: insulin labeled with TAMRA (5/6-carboxy-tetramethyl-rhodamine succinimidyl ester)
- Uptake of TAMRA-insulin (CLSM) (Caco-2 cells [2]): uptake was absent
- MFI (A.N.) of TAMRA-insulin (Caco-2 cells [3]; pH 6.5, with Trypan Blue (0.1% v/v)): 49.6 ± 1.9 A.N.
- MFI (A.N.) of TAMRA-insulin (Caco-2 cells [3]; pH 7.4, with Trypan Blue (0.1% v/v)): 40.8 ± 2.6 A.N.
- MFI (A.N.) of TAMRA-insulin (Caco-2 cells [3]; pH 7.4, without Trypan Blue): 41.2 ± 2.9 A.N.

Compound: Vancomycin
- Log P [1]: −4.4
